This is an account of results in article PMC7948952, “Structural basis for multifunctional roles of human Ints3 C-terminal domain” (The Journal of Biological Chemistry, 2020).

The target of the data set is Ints3-555-976 R788E/K789E (human, UniProt Q68E01-2 555-976, R788E;K789E). The experiment in a line: EMSA; not reduced vs WT (WT itself weak); up to 200 uM; 20 mM Hepes pH 7.4, 100 mM NaCl, 1 mM MgCl2, 1 mg/ml BSA, 2 mM DTT, 5% glycerol; on ice 30 min; 7.5 nM probe; native 5% PAGE in 1X TBE. To be noted: protein: recombinant; chain copies: 2; label: 5' 32P; single strand.
Sequence of Ints3-555-976 R788E/K789E (Q68E01 556-977 R789E/K790E): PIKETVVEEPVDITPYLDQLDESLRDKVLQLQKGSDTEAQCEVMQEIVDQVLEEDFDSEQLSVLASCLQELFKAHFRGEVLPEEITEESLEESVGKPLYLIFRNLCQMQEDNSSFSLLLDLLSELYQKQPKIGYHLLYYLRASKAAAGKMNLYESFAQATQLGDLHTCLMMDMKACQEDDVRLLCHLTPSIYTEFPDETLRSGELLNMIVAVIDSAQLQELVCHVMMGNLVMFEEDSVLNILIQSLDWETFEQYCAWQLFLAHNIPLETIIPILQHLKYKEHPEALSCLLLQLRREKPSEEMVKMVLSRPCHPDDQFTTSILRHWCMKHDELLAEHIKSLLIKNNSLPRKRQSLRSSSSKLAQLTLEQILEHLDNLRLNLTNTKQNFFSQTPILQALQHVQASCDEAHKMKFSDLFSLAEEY

For the molecule TTTTTTTTTTTTTTTTTTTTTTTTTTTTTT (ssDNA) [dT30], the binding result was “binds”.
